In paper PMC4004294:
Like-named read-outs stand apart in the source and are kept apart here.

Key:
[1] = target: glutathione S-transferase (GST) tagged HIV-1 IN (HIV-1); assay: AlphaScreen or HTRF
[2] = target: HIV-1 integrase fused to mVenus (IN-mVenus), transincorporated into virions as Vpr-IN-mVenus (HIV-1); assay: FRET or BRET
[3] = target: HIV-1 integrase fused to mVenus (IN-mVenus), transincorporated into virions as Vpr-IN-mVenus (HIV-1); assay: FRET or BRET; remark: listed apart in the source

Substance	fold lower AlphaScreen signal than wild-type IN [1] [fold]	FRET ratio (r FRET) [2]	FRET ratio (r FRET) [3]
HIV-1 IN point mutant IN(W108G)-His6 (enzyme)	4		
HIV-1 integrase fused to mTFP1 (IN-mTFP1), transincorporated into virions as Vpr-IN-mTFP1 (enzyme)		1.3	1.27
